In publication PMC2957832 (Biochemical and biophysical research communications, 2010):

Biological target: the molecule itself
Test: SEC

B1: Purβ core tryptic fragment (residues 29–305) (domain or fragment, mouse, UniProt O35295 29-305, looked up)
chain: GGGGGGGGPGGEQETQELASKRLDIQNKRFYLDVKQNAKGRFLKIAEVGAGGSKSRLTLSMAVAAEFRDSLGDFIEHYAQLGPSSPEQLAAGAEEGGGPRRALKSEFLVRENRKYYLDLKENQRGRFLRIRQTVNRGGGGFGGGPGPGGLQSGQTIALPAQGLIEFRDALAKLIDDYGGDEDELAGGPGGGAGGPGGGLYGELPEGTSITVDSKRFFFDVGCNKYGVFLRVSEVKPSYRNAITVPFKAWGKFGGAFCRYADEMKEIQERQRDKLYER
- stoichiometry N: 2
